Like-named read-outs stand apart in the source and are kept apart here.
How the values were obtained:
[1] = target: T1, SARS-CoV-2 spike D614, on pseudovirus (SARS-CoV-2, UniProt P0DTC2 14-1273); assay: cell-based or functional assay
[2] = target: T1, SARS-CoV-2 spike D614, on pseudovirus; assay: cell-based or functional assay; remark: listed apart in the source
[3] = target: T1, SARS-CoV-2 spike D614, on pseudovirus; assay: cell-based or functional assay; remark: listed apart in the source
[4] = target: SARS-CoV S1 (SARS-CoV, UniProt P59594 14-667); assay: Octet (BLI) specificity, Fig. 12
[5] = target: T2, MERS-CoV RBD (MERS-CoV, UniProt K9N5Q8 367-606); assay: Octet (BLI) specificity, Fig. 12
T2 sequence: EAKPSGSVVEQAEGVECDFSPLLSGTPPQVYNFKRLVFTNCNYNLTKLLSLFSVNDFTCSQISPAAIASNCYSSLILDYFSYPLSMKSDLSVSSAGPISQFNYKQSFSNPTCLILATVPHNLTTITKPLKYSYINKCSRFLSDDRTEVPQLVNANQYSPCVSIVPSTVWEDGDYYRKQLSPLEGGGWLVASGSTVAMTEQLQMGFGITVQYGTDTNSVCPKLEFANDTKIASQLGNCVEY

B1: No. 139 항체 (Full IgG) (antibody, V domains shown)
VH: QITLKESGPTLVKPTQTLTLTCSFSGFSLSTSGVGVGWIRQPPGKALEWLALIDWDDNKYHTTSLKTRLTISKDTSKNQVVLTMTNMDPVDTATYYCARIPGFLRYRNRYYYYGMDVWGQGTTVTVSS
VL: ELVLTQPPSVSAAPGQKVTISCSGSSSNIGNNYVSWYQQLPGTAPKLLIYDNNKRPSGIPDRFSGSKSGTSATLGITGLQTGDEADYYCGTWDSSLSAGVFGGGTELTVL
notes: also called CT-P59; Regdanvimab
B1 was tested, and the “pseudovirus 중화능 IC50” value [1] was 0.378 ng/mL, the “pseudovirus 중화능 IC50” value [2] was 0.35 ng/mL and the “pseudovirus 중화능 IC50” value [3] was 0.535 ng/mL. B1: no binding [4]; no binding [5].
